Test results from patent publication US20240262910A1 (Memorial Sloan Kettering, published 2024).

Columns and labels:
[1] = target: T1, human CD33, full length, on cells (human, UniProt P20138 18-364); experiment: flow cytometry, 3T3-CD33 cells
T1 construct: NIH-3T3 cells stably overexpressing full-length human CD33, or AML lines U937 and Set2 with endogenous CD33; the cell line is named under assay; also called 3T3-huCD33; 3T3-CD33
Method: (§1) Binding to CD33 on Cells. To assess the binding of TDI-Y-006, TDI-Y-007 and 1J19 to cell surface-bound CD33, 3T3 cells overexpressing CD33, as well as the U937 AML cell line, which expresses endogenous CD33, were used. U937 CD33KO or NALM6 were included as negative controls. Briefly, NALM6, U937 CD33+ and KO cells were blocked with human IgG Fc for 20 minutes on ice. The recombinant antibodies were then serially diluted starting at 100 μg/mL concentration and added for 30 minutes on ice. AlexaFluor 647-conjugated goat anti-human F(ab′)2 was added to cells for 30 minutes on ice, washed and analyzed by flow cytometry, normalized to secondary only staining (MFI ratio). EC50 values were determined by non-linear regression.

[2] = target: T2, human CD33 extracellular domain with 6xHis-tag (human, UniProt P20138 18-259); experiment: BLI, huCD33-His on anti-penta-His sensor, no competitor
T2 construct: Bought (R&D Systems, Acro Biosystems); also called huCD33-His; huCD33(ECD)-His
T2 sequence (P20138 other isoform, or with tags, fused parts or gaps): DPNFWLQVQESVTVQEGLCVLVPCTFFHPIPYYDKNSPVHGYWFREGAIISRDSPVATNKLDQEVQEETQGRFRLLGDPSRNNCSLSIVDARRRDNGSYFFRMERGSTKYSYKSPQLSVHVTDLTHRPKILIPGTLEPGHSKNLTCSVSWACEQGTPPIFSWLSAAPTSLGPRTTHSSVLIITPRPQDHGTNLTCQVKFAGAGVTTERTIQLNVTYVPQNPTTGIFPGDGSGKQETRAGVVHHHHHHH
Method: Epitope Binning. Epitope binning was carried out by a BLI competition experiment using an Octet Red96e. Human CD33-His was captured by an anti-penta-His biosensor. A 4×4 matrix with TDI-Y-006, TDI-Y-007, 1J19 and H195 was tested. A reference biosensor was used to determine the overall capture level for each antibody. After pre-binding the antibodies at saturation levels, the biosensors were dipped into antibody solutions to assess competition. […] However, when TDI-Y-006 was pre-bound, binding of TDI-Y-007 was blocked. […] Similarly, 1J19 and H195 have epitopes that partially overlap. No competition was observed between antibodies binding to the membrane-proximal IgC2 domain (TDI-Y-006 and TDI-Y-007) and antibodies binding to the membrane-distal IgV domain (1J19 and H195).

[3] = target: T1, human CD33, full length, on cells; experiment: flow cytometry, U937 cells
Method: as §1

[4] = target: T2, human CD33 extracellular domain with …; experiment: BLI (Octet Red96e), antibody on anti-huFc sensor, huCD33-His as analyte, 1:1 fit
Method: The binding affinity to human CD33 protein was measured by biolayer interferometry (BLI) using an Octet Red96e. All experiments were carried out using kinetic buffer (PBS pH 7.4, 0.01% BSA, 0.002% Tween-20). The antibodies were captured by an anti-huFc biosensor and a 7-point, 2-fold dilution series of huCD33-His was used as analyte. The data was processed by double reference subtraction, and response curves were globally fit to a 1:1 Langmuir binding model. […] The binding affinities are similar to the H195 reference antibody.

[5] = target: T1, human CD33, full length, on cells; experiment: flow cytometry, purified mAb, Set2 cells
[6] = target: T1, human CD33, full length, on cells; experiment: flow cytometry, purified mAb, U937 cells
[7] = target: T1, human CD33, full length, on cells; experiment: flow cytometry, hybridoma supernatant, 3T3-huCD33 cells
[8] = target: T3, mouse CD33 extracellular domain with 6xHis-tag (mouse, UniProt Q63994 18-240); experiment: ELISA on recombinant moCD33-His, purified hybridoma subclone antibody, readout RLU; antibody concentration not given
T3 construct: range 18-240; also called moCD33-His; moCD33(ECD)-His
T3 sequence: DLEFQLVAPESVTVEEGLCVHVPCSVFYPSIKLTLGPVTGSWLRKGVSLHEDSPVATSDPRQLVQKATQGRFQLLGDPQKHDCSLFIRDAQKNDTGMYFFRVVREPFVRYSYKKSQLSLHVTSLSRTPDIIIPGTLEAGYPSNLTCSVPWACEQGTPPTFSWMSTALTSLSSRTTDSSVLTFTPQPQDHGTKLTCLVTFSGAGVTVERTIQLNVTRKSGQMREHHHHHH

[9] = target: T1, human CD33, full length, on cells; experiment: flow cytometry, hybridoma supernatant, U937 cells
[10] = target: T4, human CD33 IgC2 type domain with 6xHis-tag (human, UniProt P20138 140-259); experiment: ELISA, hybridoma supernatant
T4 construct: Produced at LakePharma; also called huCD33IgC2-His; CD33 IgC2-6xHis
T4 sequence (P20138 other isoform, or with tags, fused parts or gaps): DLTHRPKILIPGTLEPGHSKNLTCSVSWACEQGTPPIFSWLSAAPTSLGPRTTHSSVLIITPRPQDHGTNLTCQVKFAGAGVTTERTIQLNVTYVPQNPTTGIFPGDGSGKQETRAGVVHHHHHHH

[11] = target: T2, human CD33 extracellular domain with …; experiment: ELISA, hybridoma supernatant
[12] = target: T4, human CD33 IgC2 type domain with …; experiment: ELISA, hybridoma supernatant, RLU
[13] = target: T5, human CD33 IgC2 domain only, on NIH-3T3 cells (human, UniProt P20138 140-364); experiment: flow cytometry, hybridoma supernatant, 3T3-huCD33IgC2 cells
T5 construct: the whole entry is named here; also called 3T3-huCD33IgC2; 3T3 CD33-IgC2
T5 sequence (P20138 140-364 limits assumed): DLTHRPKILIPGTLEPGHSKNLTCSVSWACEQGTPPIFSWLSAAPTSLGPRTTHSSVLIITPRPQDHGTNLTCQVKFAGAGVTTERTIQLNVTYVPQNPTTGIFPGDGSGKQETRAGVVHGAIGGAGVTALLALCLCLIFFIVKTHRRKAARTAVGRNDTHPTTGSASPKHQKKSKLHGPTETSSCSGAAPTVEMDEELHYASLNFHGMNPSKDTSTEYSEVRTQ

[14] = target: T5, human CD33 IgC2 domain only, on NIH-3T3 …; experiment: flow cytometry, hybridoma supernatant, 3T3-huCD33IgC2 cells, MFI
[15] = target: T1, human CD33, full length, on cells; experiment: flow cytometry on 3T3 cells overexpressing human CD33, antibody titration, AlexaFluor 647 goat anti-human F(ab')2 detection, MFI ratio to secondary only
Method: as §1

T1 sequence (P20138 18-364): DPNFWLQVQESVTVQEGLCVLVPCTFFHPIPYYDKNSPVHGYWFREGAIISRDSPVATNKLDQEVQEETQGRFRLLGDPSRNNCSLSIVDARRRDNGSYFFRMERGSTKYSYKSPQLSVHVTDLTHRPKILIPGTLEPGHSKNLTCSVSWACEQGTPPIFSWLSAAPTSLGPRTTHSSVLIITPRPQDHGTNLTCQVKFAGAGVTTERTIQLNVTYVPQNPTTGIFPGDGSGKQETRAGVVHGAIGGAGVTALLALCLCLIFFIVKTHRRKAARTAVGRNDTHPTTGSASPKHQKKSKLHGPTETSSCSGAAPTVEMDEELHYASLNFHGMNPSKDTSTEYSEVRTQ

B1: H195 (lintuzumab) (antibody, V domains shown)
VH: QVQLVQSGAEVKKPGSSVKVSCKASGYTFTDYNMHWVRQAPGQGLEWIGYIYPYNGGTGYNQKFKSKATITADESTNTAYMELSSLRSEDTAVYYCARGRPAMDYWGQGTLVTVSS
VL: DIQMTQSPSSLSASVGDRVTITCRASESVDNYGISFMNWFQQKPGKAPKLLIYAASNQGSGVPSRFSGSGSGTDFTLTISSLQPDDFATYYCQQSKEVPWTFGQGTKVEIK
EC50 [1]: 4.8 nM
BLI total binding capacity (Reference Biosensor) [2]: 0.743
EC50 [3]: 0.4 nM
Kd [4]: 1.22 nM
kon [4]: 358000 M⁻¹ s⁻¹

B2: 2-F18 (antibody, V domains shown)
VH: QIQLVESGGGVVQPGRSLRLSCAASGFTFSAYPMHWVRQAPGKGLEWVAIISYDGSNNYYADSVKGRFTISRDNSKNTMYLQINSLRAEDTGVYYCARGKVGTLDFWGQGTLVTVSS
VL: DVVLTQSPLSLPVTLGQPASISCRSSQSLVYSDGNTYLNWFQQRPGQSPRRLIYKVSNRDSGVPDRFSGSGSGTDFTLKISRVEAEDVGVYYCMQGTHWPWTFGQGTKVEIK
notes: AlivaMab mouse hybridoma antibody; also called 2-F18-A
EC50 [5]: 24.2 nM
EC50 [6]: 11.9 nM
MFI [7]: 3.56e+06 MFI
binding result [8]: no binding
MFI [9]: 351000 MFI
RLU [10]: 20400 RLU
RLU [11]: 251000 RLU

B3: 1-P13 (antibody, V domains shown)
VH: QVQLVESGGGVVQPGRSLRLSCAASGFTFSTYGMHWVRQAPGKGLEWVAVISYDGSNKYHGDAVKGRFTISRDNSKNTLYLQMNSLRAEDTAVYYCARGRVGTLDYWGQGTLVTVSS
VL: DVVMTQSPLSLPVSLGQPASISCRSSRGLVYSDVNTNLNWFQQRPGQSPRRLIYKVSNRDSGVPDRFSGSGSGTDFTLKISRVEAEDVGVYYCMQGTHWPWTFGQGTKVEIK
notes: AlivaMab mouse hybridoma antibody; also called 1-P13-A
EC50 [5]: 5 nM
EC50 [6]: 6.33 nM
MFI [7]: 2.15e+06 MFI
binding result [12]: no binding
binding result [8]: no binding
MFI [9]: 559000 MFI
RLU [11]: 117000 RLU

B4: 4-P3 (antibody, V domains shown)
VH: EVQLLESGGGLVQPGGSLRLSCAASGFTFSTYAMSWVRQAPGKGLEWVSAISGRGGSTYYTDSVKGRFTISRDNSKNTVSLQMNSLRAEDTAVYYCAGRGDYYYYYGMDVWGQGTTVTVSA
VL: DIVMTQSPLSSPVTLGQPASISCRSSQSLVYSDGNTYLSWLQQRPGQPPRLLIYKISNRFSGVPDRFSGSGAGTDFTLKISRVEAEDVGVYYCMQSTQFPHTFGQGTKLEIK
notes: AlivaMab mouse hybridoma antibody; also called 4-P3-A
EC50 [5]: 2 nM
EC50 [6]: 2.5 nM
MFI [7]: 1.32e+06 MFI
MFI [13]: 391000 MFI
binding result [8]: no binding
MFI [9]: 188000 MFI
RLU [11]: 484000 RLU

B5: 2-N3 (antibody, V domains shown)
VH: EVQLVQSGADVKKPGESLKISCKGSGFSFTSHWIAWVRQMPGKGLEWMGIIYPGDSDTRYSPSLQGRVTISADKSISTAYLQWSSLKASDTAMYFCARHETGNGYSYGMDVWGQGTTVTVSS
VL: DIVMTQSPLSLPVTPGEPASISCRSSQSLLHSNGYNYLDWYLQKPGQSPQLLFSLGSNRASGVPDRFSGSGSGTDFSLKISRVEAEDVGLYYCMQALQPPLTFGGGTKVEIK
notes: AlivaMab mouse hybridoma antibody; also called 2-N3-A
EC50 [5]: 0.466 nM
EC50 [6]: 0.4 nM
MFI [7]: 4.21e+06 MFI
binding result [12]: no binding
binding result [8]: no binding
MFI [9]: 409000 MFI
binding result [14]: no binding (tested: A signal >100,000 was used as cut off)
RLU [11]: 724000 RLU

B6: 1-P23 (antibody, V domains shown)
VH: QVQLVESGGGVVQPGRSLRLSCAASGFTFNSYGMHWVRQAPGKGLEWVAIISYDGSNKYYADSVKGRFTISRDNSKNTLYLQMNSLRAEDTAVYYCARDNYDSSGYNWYFDLWGRGTLVTVSS
VL: SSELTQDPAVSVALGQTVRITCQGDSLRSYYASWYQQKPGQAPVLVIYGKNNRPSGIPDRFSGSSSGNTASLTITGAQAEDEADYYCNSRDSSGNLWVFGGGTKLTVL
notes: AlivaMab mouse hybridoma antibody; also called 1-P23-A
EC50 [5]: 1.4 nM
EC50 [6]: 1.07 nM
MFI [7]: 4.08e+06 MFI
binding result [12]: no binding
binding result [8]: no binding
MFI [9]: 456000 MFI
binding result [14]: no binding (tested: A signal >100,000 was used as cut off)
RLU [11]: 41800 RLU

B7: 1-A20 (antibody, V domains shown)
VH: QVQLQESGPGLVKPSETLSLTCTVSGDSISSYYWSWIRQPAGKGLEWIGRIYTSGNTNYNPSLKSRVTMSVDKSKNQFSLKLRSVTAADTAVYYCARDGDNRDSDAFDIWGQGTMVTVSS
VL: SPGTLSLSPGERATLSCRASQNISSSYLAWCQQKPGQAPRLFIYGTSRRATGIPDRFSGSGSGTDFTLTISRLEPEDFAVYYCQQYGSSPLTFGGGTKVEIK
notes: AlivaMab mouse hybridoma antibody; also called 1-A20-A
EC50 [5]: 0.4 nM
EC50 [6]: 0.6 nM
MFI [7]: 1.98e+06 MFI
binding result [12]: no binding
binding result [8]: no binding
MFI [9]: 558000 MFI
binding result [14]: no binding (tested: A signal >100,000 was used as cut off)
RLU [11]: 117000 RLU

B8: 1-H19 (antibody, V domains shown)
VH: QVQLQESGPGLVKPSETLSLTCTVSGGSISTYYWSWIRQPAGKGLEWIGRIYTSGNTNYNPSLKSRVTMSVDTSKNQLSLKLRSVTAADTAVYYCARDGDNRNSDAFDIWGQGTMVTVSS
VL: QSVLTQPPSVSGAPGQRVTISCTGSSSNIGAGYDVHWYQQLPGTAPKLLIYGNSNRPSGVPDRFSGSKSGTSASLAITGLQAEDEADYYCQSYDRSLSGWVFGGGTKLTVL
notes: AlivaMab mouse hybridoma antibody; also called 1-H19-A
EC50 [5]: 0.4 nM
EC50 [6]: 0.866 nM
MFI [7]: 1.75e+06 MFI
binding result [8]: no binding
MFI [9]: 479000 MFI
RLU [10]: 58900 RLU
RLU [11]: 132000 RLU

B9: 1J19 (recombinant, human IgG1 constant region) (antibody, V domains shown)
VH: QVQLQQSGPGLVKPSQTLSLTCAISGDSVSSNSAAWNWIRQSPSRGLEWLGRTYFRSKWYNVYAVSVKSRITINPDTSKNQFSLQLNSVTPEDTAVYYCASEGGSYYDHWGQGTLVTVSS
VL: DIQMTQSPSSVSASVGDRVTITCRASQGISNWLTWYQQKPGKAPKLLIYAASSLQSGVPSRFSGSGSGTDFTLTISSLQPEDFATYYCQQADSFPFTFGPGTKVDIK
EC50 [1]: 6.54 nM
EC50 (read off the curve) [15]: ~4 nM
BLI total binding capacity (Reference Biosensor) [2]: 0.432
EC50 [3]: 2.16 nM
Kd [4]: 1.1 nM
kon [4]: 266000 M⁻¹ s⁻¹

B10: 1-J19 (hybridoma antibody) (antibody, V domains shown)
VH: QVQLQQSGPGLVKPSQTLSLTCAISGDSVSSNSAAWNWIRQSPSRGLEWLGRTYFRSKWYNVYAVSVKSRITINPDTSKNQFSLQLNSVTPEDTAVYYCASEGGSYYDHWGQGTLVTVSS
VL: DIQMTQSPSSVSASVGDRVTITCRASQGISNWLTWYQQKPGKAPKLLIYAASSLQSGVPSRFSGSGSGTDFTLTISSLQPEDFATYYCQQADSFPFTFGPGTKVDIK
notes: AlivaMab mouse hybridoma antibody; also called 1-J19-A
EC50 [5]: 7.93 nM
EC50 [6]: 10.2 nM
MFI [7]: 3.86e+06 MFI
MFI [9]: 339000 MFI
binding result [14]: no binding (tested: A signal >100,000 was used as cut off)
RLU [10]: 15200 RLU
RLU [11]: 95600 RLU
